Measurements as given in patent US12459996B2, “Methods for treating alcohol-induced brain injury and reducing alcohol addiction” (The Regents of the University of California, priority 2017, dated 2025).

Test system: cultured GFAP+F4/80- astrocytes
Assay: IL-1β stimulation of cultured astrocytes, gene expression microarray
Assay type: cell-based, mouse
Settings: 5 ng/ml, 24 h
Method: Whole mouse genome gene expression via Microarray: Primary astrocytes (5×10^5) were stimulated with IL-1β (5 ng/ml), TGF-β1(5 ng/ml) or vehicle for 24 h, harvested, and mRNA was purified using RNAeasy™ columns (Qiagen); and 160 ng of purified RNA per sample was labeled using the LRILAK PLUS™, 2-color, low RNA input Linear Amplification kit and hybridized to a Whole Mouse Genome Microarray 4×44 K™ 60mer slide according to the manufacturer's instructions (Agilent, Santa Clara, CA). Slides were scanned using the Agilent GZ505B Scanner™ and analyzed using the Gene Spring Software™ (Agilent).
To determine the effect of microglia-derived cytokines on astrogliosis 21,22, cultured GFAP^+F4/80-astrocytes were in vitro stimulated with TGF-β1 or IL-β. […] In addition, cultured astrocytes expressed glutamate receptors (mGluRs) that mediate neuron-astrocyte signaling (FIG. 14D). Under pathological conditions, neurodegeneration triggers expansion of reactive astrocytes, upregulation of TGF-β 1, and mGuRs, which together generate neuroprotective effects^24.
FIG. 14A: Primary GFAP^+F4/80^− astrocytes and GFAP^−F4/80^+ microglial cells were isolated from Wt mice, and phenotyped by immunocytochemistry. Cell purity was calculated as percent of total cells (representative images ×20 objective). […] The data are average of (triplicates). FIG. 14B-C: Cultured astrocytes (5×10^5 cells per ml) were stimulated with TGF-β1 (5 ng/ml), or IL-1β (5 ng/ml), or PBS, and subjected to the customized gene expression microarray (Agilent. FIG. 14B: GO enrichment profile for IL-1β- and FIG. 14C: TGF-β- (vs PBS-) stimulated astrocytes is shown.

**Q.** “IL-β1: IL-1β cytokine (5 ng/ml) used to stimulate cultured astrocytes” was tested. Which “CCL2, fold induction vs vehicle” value did it give?
**A.** 200 fold

**Q.** And the “CCL5, fold induction vs vehicle” value?
**A.** 13 fold

**Q.** What about the “CCL7, fold induction vs vehicle” value of the same substance?
**A.** 400 fold

**Q.** And the “Cxcl1, fold induction vs vehicle” value?
**A.** 14 fold

**Q.** What about the “IL-6, fold induction vs vehicle” value of the same substance?
**A.** 20 fold
